# Measurements reported in the RNAGym collection of RNA variant scans (doi:10.1073/pnas.2313332121).
# B1: TPR t1 (parent)
# chain: GACCAAUCUGCCCUCAGAGCUCGAGAACAUCUUCGGAUGCAGAGGAGGCAGGCUUCGGUGGCGCGAUAGCGCCAACGUCCUCAACCUCCAAUGCAUCCCACCACAUGAUGAUGCCUGAAGAGCCUUGGUUUUUUG
# Variants of: B1
# Experiment: polymerase ribozyme fitness, log enrichment relative to wild type (log ratio); higher = more active; in vitro selection for triplet polymerase activity
# How it was run: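 Streptavidin-bead capture of gel-excised extended constructs, followed by RT-PCR, closed a single triplicate in vitro selection round. That round began by annealing PCR-built, transcribed mutant libraries of each subunit of a heterodimeric triplet polymerase ribozyme with a biotinylated primer, the partner subunit and triplets, then incubating them frozen at −7 °C. After Illumina sequencing of inputs and outputs, genotypes needed ≥10 input reads and ≥1 read per output. Fitness is the base-2 logarithm of genotype enrichment over wild-type enrichment, using inverse-variance-weighted replicate averages.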
row,Variant,polymerase ribozyme fitness (log ratio)
1,U7A G17U C62U A111C G135U,-4.01
2,U9G C73A,-0.668
3,C13A A41C C73G,-4.43
4,G47C A121G,0.606
5,A37U C82A G93U,-1.72
6,G60A G63U U87A U92A C102A C115G G128U,-5.66
7,G71U A83U C99A A105C C123U,-7.02
8,G47A U112G G117A,-3.86
9,C62U G122A,-0.839
10,G51U U109A G128U,-5.92
11,C11U A83G,-1.21
12,A29U C56U A84G C97U,-3.9
13,C64U C89U C123U,0.715
14,A90C A118U,-0.0445
15,G57A G107A,-6.98
16,C86G U112C,-1.94
17,C8G C11G U54C U55G C56U,-1.33
18,G52A G63U U129A,-3.94
19,C11G U112C,1.9
20,G36A U55G U87A,-1.87
21,A50G G63A U112A G122A,-1.39
22,C12U C20A G71A U87C,-2.91
23,C72G A90C C101U,-1.47
24,A27C C70U,-3.87

row,Variant,polymerase ribozyme fitness (log ratio)
1,C3A C62U,-1.99
2,G44U C82A C97A A121U,-3.17
3,G57A C62U,-0.892
4,C11G G93C A105U A119U,-3.55
5,U7A C11G A37U G60U G93C,-0.83
6,C49G G93U C94A,-3.18
7,A43G C89U,-1.2
8,A37U C82U G128C U130C,-2.33
9,C22G A50G,-3.5
10,G117C U125A G135C,-4.9
11,C88U A100G A108G U133G,-5.29
12,C22A C40U C49A C72U C123G,-5.79
13,A27U G48C,-3.79
14,C12U C72G A103G C124A,-5.75
15,A50U C98U G107A C115A,-5.98
16,G17U G44U C49G,-5.1
17,A27C G71U,-3
18,C8G G19U C94U,-2.66
19,C72U A84G,-1.74
20,A18C C20A U55C G57A G63A,-4.91
21,C3U C82A,-0.533
22,U38G G47C C62U C85A,-5.9
23,C13G U32C A37G C49U,-1.77
24,U14A G44C G58U,-2.72

row,Variant,polymerase ribozyme fitness (log ratio)
1,A6G C62U G110C,-4.63
2,A24G C98U C101A,-4.13
3,A46C U55A G63C,-0.439
4,A6U C13U G61C U112A,-1.1
5,G23C C62A C99U U112C,-6.42
6,C11G C70A,-0.991
7,A37G U109G,-5.43
8,G69A C101U,-2.16
9,C4U C53A C64U C88A C123U G127U U131G,-1.35
10,G39A G63U G69U,-1.34
11,C72U G113C A118C,-3.51
12,A5U A6U U7G C8U G36A A121C,0.985
13,C72U C101G C115U,-3.38
14,C3U A5C C15A G69C U109A U116A,-5.71
15,C22U A75G,-3.55
16,A41U U125G,-1.97
17,G63A C104A,-2.41
18,C64U C86A G122A U132A,-2.78
19,U9A G19U C88A C114A,1.72
20,A41C G63A G69U G93C C101A,-4.78
21,C56U C70U U132C,-0.908
22,C76A C79G C123G,0.511
23,C8A G61C,-0.912
24,G63C A111C,-0.587

row,Variant,polymerase ribozyme fitness (log ratio)
1,U14A C88G C99U C123U U131G U134A,-3.82
2,C49A C89A,-1.76
3,C85U C123U,-1.28
4,G10A U81A G110A U129A,-5.01
5,U7A C13U G36A G69U,-0.408
6,C40U G44A,-0.755
7,U30C C49G G63U C70U A84C C114U,-6.54
8,U78G C85G C88A A111G C114A,-6.16
9,A5G G69U,0.484
10,C13G G93A G113C A118U,-5.1
11,A6U A29G G71A A83G C89A U109C G120C C123G U132A,-6.04
12,C56A A84G C104U G120A,-1.12
13,G128C U133A,-2.85
14,U33A A90C,-6.85
15,C115A A119G,-0.948
16,A66U C85U,-2.22
17,A26U G48C,-3.53
18,C3G G42U C99U C115G A121G,-5.96
19,G17U A26G G71A C94A U112C C115A,-2.54
20,A18G G69U C102U C115A,-5.41
21,C22U,-3.85
22,C12U G36A A66C U78C C82G A121U,-0.787
23,C12G G69U,0.711
24,G10A G69U C79A A103C C115U G122A,-5.83

row,Variant,polymerase ribozyme fitness (log ratio)
1,C15U A46G A84U U112A G113U G120U,-4.78
2,A26U G61U U87G C98G A121U,-6.57
3,A6U G69U G113A,-0.642
4,G45A C73U,-1.34
5,G93A U109A,-5.41
6,G52U C72A C85A U106A G110U,-3.08
7,U7C G48C C70U,-0.869
8,C73U C85A G120U,-0.527
9,U54A C72A C73U A91C C115U,-4.35
10,U7A A37U G71U A95G U96A,-0.194
11,G63U G77A,-3.45
12,A5G A111G C123A G128U,-2.99
13,G17U C56U,-2.12
14,A74G C102U A119U,-0.954
15,U38A C70U,-1.15
16,G61U U126A,-1.86
17,A2G C12A C15U G45U U106A,-3.92
18,G60A C80A,-3.69
19,C12A G36C U55G C72U U96G,-4.76
20,A6C U9A C11G A74G,-0.26
21,U9C C62A A75G C94A G110A,-4.36
22,G17U U96A A119G,-1.01
23,U9C A16U C88A A95C A111U,-5.45
24,U9G C11G,-4.02

row,Variant,polymerase ribozyme fitness (log ratio)
1,C3A C15A A41U G58C G71U U92G C114G,-5.03
2,A2G C102A C114U,-4.44
3,G69U C104A U116A C124U,-0.357
4,C40A G48A,-2.24
5,C4G C8G,-0.396
6,G35C U106C,-4.83
7,G10C A29C G61C C123U U125A G135A,-4.26
8,C3A G57A U92C,-5.31
9,C11G A29G,-1.16
10,A6U C49A C62U C70G C104A U125A,-7.09
11,A83C U109C,-4.51
12,C8G C22U C40G G120A C124A,-2.61
13,C88U C89G U92G,-2.44
14,G36C U92A A118U,-3.89
15,U7C G135U,-0.566
16,A84U C114U U126G,-6.08
17,G42U U78A U81A U112A,-3.13
18,A37U G77A A111C,0.0508
19,U38G C70U C80U G120C,-1.36
20,G61C G113C,-3.19
21,C13A C99A,-6.93
22,C15G U78G,-2.92
23,G23C C123U,-5.53
24,C4U C34G,-5.92

row,Variant,polymerase ribozyme fitness (log ratio)
1,C13A C72G,-1.85
2,U78A C101G,-2.13
3,C4U G63A U116G A121U G127U,-4.48
4,G63U C70A U116A,-3.62
5,C94G C114U,-3.17
6,C53G G63A A111C A119G,-1.67
7,A27U U133C,-2.05
8,U59C,-0.0998
9,G17C A18G G42U C80U U112C,-0.371
10,C62A G117A,-2.71
11,C15A A118G,-2.6
12,G61C C123U,-0.994
13,C8G A27U G47C,-3.02
14,C76A C94U G117C,-5.54
15,U7A U9G A46C C85G,-1.96
16,C4A G71A A84C G117U,-6.14
17,C79U C94U,-0.702
18,C11A C20U,-1.95
19,G45A G51A C79G C82U C86U U112A C115A,-7.28
20,C56U A90G C97U,-0.119
21,G60C C73U,-1.41
22,G69C G135C,-1.59
23,G47U G63A A111G G120A,-3.58
